Measurements: article PMC8174033, “FEZ1 Forms Complexes with CRMP1 and DCC to Regulate Axon and Dendrite Development” (eNeuro, 2021)

Target: T1, FEZ1 (amino acids 1-308), EmGFP-tagged (UniProt Q99689 1-308)
T1 construct: FEZ1, amino acids 1-308; plasmid as described in Chua et al., 2012; also called truncated FEZ1 lacking its C terminus; source: HEK293, transfected, in lysate
T1 sequence (looked up): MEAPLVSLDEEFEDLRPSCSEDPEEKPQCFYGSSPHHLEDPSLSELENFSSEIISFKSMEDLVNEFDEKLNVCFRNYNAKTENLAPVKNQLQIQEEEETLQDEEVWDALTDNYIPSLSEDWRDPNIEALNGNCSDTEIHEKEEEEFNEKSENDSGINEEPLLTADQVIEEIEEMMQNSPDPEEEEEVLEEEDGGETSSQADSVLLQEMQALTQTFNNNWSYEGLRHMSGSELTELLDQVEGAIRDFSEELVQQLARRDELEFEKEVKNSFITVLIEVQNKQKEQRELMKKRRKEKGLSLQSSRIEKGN
Assay: co-IP; HEK293 cells co-expressing the two tagged proteins, 24 h after transfection; lysis and washes in 50 mM HEPES, 150 mM NaCl, 1 mM EDTA, 1% Triton X-100, pH 7.2; GFP-Trap agarose beads 1-3 h at 4°C; immunoblot
Settings: partners not purified

fold change of co-precipitated CRMP1 against full-length FEZ1: ~3 fold
B1: collapsin response mediator protein 1 (CRMP1), full-length, FLAG-tagged (natural protein)
chain: not shown
notes: CRMP1, human cDNA, full-length, in pFLAG-CMV2; also called FLAG-CRMP1; source: HEK293, transfected, in lysate
